Assay results from PMC4514859.
pKd: −log10 of the molar value.

Tested on: MtlR (Pseudomonas fluorescens DSM 50106)
Assay: EMSA
Conditions: 1x shift buffer A: 10 mM Tris-HCl pH 7.0, 5% glycerol, 1 mM TCEP, 50 ug/ml salmon sperm DNA, 4% TEG, 2 mM D-mannitol (absent in buffer B), 30 min on ice, gel …

PCR 210 (wild-type PmtlE operator) showed a pKd (with D-mannitol, kdiss 1.1e-4 s-1, t1/2 112 min) of 7.51 and a pKd (without mannitol, kdiss 1.2e-4 s-1, t1/2 99 min) of 7.49.
